The values that follow come from publication PMC4499135.

Test in all cases: EMSA
In one series the test system is TRF1-Myb. The following applies: histone octamer, salt dilution; 20 mM Hepes pH 7.9, 100 mM NaCl, 50 mM KCl, 1 mM MgCl2, 0.1 mM EDTA, 1 mM DTT, 5% glycerol, 0.5 mg/ml BSA, 0.1% NP-40, chicken erythrocyte nucleosome carrier ….
A further series deals with TRF2. The following applies: 20 mM Hepes pH 7.9, 100 mM NaCl, 50 mM KCl, 1 mM MgCl2, 0.1 mM EDTA, 1 mM DTT, 5% glycerol, 0.5 mg/ml BSA, 0.1% NP-40, chicken erythrocyte nucleosome carrier ….
A further series concerns TRF2-Myb. The following applies: histone octamer, salt dilution; 20 mM Hepes pH 7.9, 100 mM NaCl, 50 mM KCl, 1 mM MgCl2, 0.1 mM EDTA, 1 mM DTT, 5% glycerol, 0.5 mg/ml BSA, 0.1% NP-40, chicken erythrocyte nucleosome carrier ….
For a further series, the system named is TRF2ΔB. The settings on record: 20 mM Hepes pH 7.9, 100 mM NaCl, 50 mM KCl, 1 mM MgCl2, 0.1 mM EDTA, 1 mM DTT, 5% glycerol, 0.5 mg/ml BSA, 0.1% NP-40, chicken erythrocyte nucleosome carrier ….
For the next series, the system named is TRF1. The following applies: 20 mM Hepes pH 7.9, 100 mM NaCl, 50 mM KCl, 1 mM MgCl2, 0.1 mM EDTA, 1 mM DTT, 5% glycerol, 0.5 mg/ml BSA, 0.1% NP-40, chicken erythrocyte nucleosome carrier ….
The subject of the next series is TRF2AΔB. The following applies: 20 mM Hepes pH 7.9, 100 mM NaCl, 50 mM KCl, 1 mM MgCl2, 0.1 mM EDTA, 1 mM DTT, 5% glycerol, 0.5 mg/ml BSA, 0.1% NP-40, chicken erythrocyte nucleosome carrier ….
The mark [1] stands for this setting: intact histone octamer, scale: fold higher affinity vs naked Tel2-601-Tel2.
The mark [2] stands for this setting: histone tails removed by trypsin.

On to Tel8-L NCP, for which the binding signal (fold lower affinity vs naked Tel8-L) in the series on TRF1-Myb is 11; in the series with TRF2 (C1/2 extrapolated, 3 experiments, histone octamer, salt dilution), 100; with TRF2-Myb it was 13.

For the substance Tel2-601-Tel2 NCP, the binding signal in the series on TRF2ΔB (setting [1]) was 3; in the series on TRF1 (setting [1]), 3; in the series on TRF2 (intact histone octamer, scale: fold lower affinity vs naked Tel2-601-Tel2) it was 2; with TRF2AΔB (setting [1]), 2.

For the substance Tel2-601-Tel2 tailless NCP, the binding signal (fold lower affinity vs intact NCP) turned out to be 2 in the series with TRF2ΔB (setting [2]), 3 in the series with TRF1 (setting [2]) and 3 in the series on TRF2AΔB (setting [2]). Further, the binding signal (fold higher affinity vs intact NCP) with TRF2 (setting [2]) is 2.
